The text below walks through data of patent US20240293460A1 (published 2024).

For orientation: Kd means the equilibrium constant for the complex coming apart. Higher therefore signals weaker binding.

The assay concerns the target soluble DKK1 peptide P20/HLA-A2 complex (human;, UniProt P61769 21-119; O94907 20-29). Nature of the assay: SPR.

B1: DKK1-A2 mAb HMB7 (antibody, V domains shown)
VH: EVQLQQSGAELVKPGASVKLSCTASGFNIKDTYMHWVKQRPEQGLEWIGRIDPANGDTKYDPKFQGKATITADTSSNTAYLHLSSLTSEDTAVYYCARGRYYYGTSSFDYWGQGTTLTVSS
VL: DIVMTQSHKFMSTSVGDWVSITCKAWQDVDTAVAWYQQKPGQSPKLLIYWASTRHTGVPDRFTGSGSGTDFTLTISNVQSEDLADYFCQQYSSYPYTFGGGTKLEIK
Turning to B1, the affinity, expressed as Kd, was 2780 nM.

B2: DKK1-A2 mAb HMB1 (antibody, V domains shown)
VH: QVQLKESGPGLVAPSQSLSITCTVSGFSLTDFAVTWIRQPPGKGLEWLGVIWGGGSTYYNSALKSRLSISKDNSKSQVFLKMNSLQTDDTAMYYCAKTTPIYFDYDHALDYWGQGTSVTVSS
VL: DVVVTQTPLSLPVSFGDQVSISCRSSQSLTNSYGNTYLSWYLHKPGQSPQLLIYGISNRFSGVPDRFSGSGSGTDFTLKISTIKPEDLGMYYCLQGTHQPYTFGGGTKLEIK
Molecule B2 had a Kd of 17.6 nM.
